Values of other authors as cited in article PMC2996873.

Target: RANTES (Homo sapiens) (UniProt P13501)
Sequence of UniProt P13501 (P13501 27-91): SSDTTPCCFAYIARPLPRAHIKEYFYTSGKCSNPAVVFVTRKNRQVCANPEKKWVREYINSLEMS

CCR1 (from UniProt P32246)
Kd: 460 nM
